Reference: patent US20250250330A1 (REVOPSIS THERAPEUTICS, published 2025)
Like-named read-outs stand apart in the source and are kept apart here.

How the values were obtained:
[1] = biological target: T1, rrVEGF165 (rabbit; Kingfisher Biotech_RP1025U-025) (Rabbit, UniProt P49151 27-190 (pig entry)); assay: ELISA on coated rabbit VEGF-A
T1 construct: Bought protein; also called Rabbit VEGF-A
T1 chain: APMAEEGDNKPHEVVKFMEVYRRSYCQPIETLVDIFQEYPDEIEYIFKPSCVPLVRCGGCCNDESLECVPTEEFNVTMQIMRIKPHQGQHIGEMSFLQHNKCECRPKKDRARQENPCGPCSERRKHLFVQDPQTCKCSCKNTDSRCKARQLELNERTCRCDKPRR

[2] = biological target: T2, Recombinant human VEGF165 (Peprotech, Cat #100-20) (human, UniProt P15692-4 27-191); assay: ELISA; target coated at 1 ug/mL, anti-human IgG Fc-HRP detection
T2 construct: Bought protein; also called rhVEGF165; rh VEGF165
Description: Different target proteins were used to coat Corning 9017 medium binding plates at 1 μg/mL and 100 μl per well. Donkey anti-human IgG Fcγ-HRP was used for detection. OD450 nm readings were measured by Victor 3.

[3] = biological target: T2, Recombinant human VEGF165 (Peprotech, …); assay: as above; remark: listed apart in the source
Description: Third, the binding to rhPIGF-1 or rhPIGF-3 was tested in comparison with rhVEGF₁₆₅. Target proteins were used to coat Corning 9017 medium binding plates at 1 μg/mL and 100 μl per well. […] Donkey anti-human IgG Fcγ-HRP was used for detection. OD450 nm readings were measured by Victor 3.

B1: RO-101 VEGF/ANG-2 bispecific surrobody (bispecific antibody, human IgG1, L234A L235A)
heavy 1: not shown
heavy 2: EVQLVESGGGLVKPGGSLRLSCAASGFTFSSYGMHWVRQAPGKGLEWVAGISADSGDKNYADSVKGRFTISRDNAKNSLYLQMNSLRAEDTAVYYCAKEFISWIYTFDYLDYWGQGTLVTVSSASTKGPSVFPLAPSSKSTSGGTAALGCLVKDYFPEPVTVSWNSGALTSGVHTFPAVLQSSGLYSLSSVVTVPSSSLGTQTYICNVNHKPSNTKVDKKVEPKSCDKTHTCPPCPAPEAAGGPSVFLFPPKPKDTLMISRTPEVTCVVVDVSHEDPEVKFNWYVDGVEVHNAKTKPREEQYNSTYRVVSVLTVLHQDWLNGKEYKCKVSNKALPAPIEKTISKAKGQPREPQVCTLPPSRDELTKNQVSLSCAVKGFYPSDIAVEWESNGQPENNYKTTPPVLDSDGSFFLVSKLTVDKSRWQQGNVFSCSVMHEALHNHYTQKSLSLSPG
light: QPVLHQPPAMSSALGTTIRLTCTLRNDHDIGVYSVYWYQQRPGHPPRFLLRYFSQSDKSQGPQVPPRFSGSKDVARNRGYLSISELQPEDEAMYYCAMGARSSVTHVFGSGTQLTVLSQPKATPSVTLFPPSSEELQANKATLVCLMNDFYPGILTVTWKADGTPITQGVEMTTPSKQSNNKYAASSYLSLTPEQWRSRRSYSCQVMHEGSTVEKTVAPAECS
notes: Format SgG1; also called Sample 1
EC50 [1]: 0.0334 nM
EC50 [2]: 0.0122 nM
EC50 [3]: 0.0162 nM
